From PMC6025699, “Acetylation Regulates Thioredoxin Reductase Oligomerization and Activity” (Antioxidants & Redox Signaling, 2018) come the findings set out here.

For orientation: stoichiometry N means a count of units in the complex or per binding partner.

“And” between values parts separate entries of the source, which are not always exact repeats. Equal entries are not always repeated.

Data set [1] concerns the molecule itself. As to the kind of experiment: cell-based or functional assay.
Data set [2] deals with the molecule itself. In words: SEC; native size exclusion chromatography, Superdex 200 Increase 10/300 GL, 20 mM sodium phosphate, 150 mM sodium chloride, pH 7.5; 0.5 mL fractions read by anti-His Western blot (densitometry) and DTNB activity; self-association: monomers, dimers, tetramers.

B1: acetylated thioredoxin reductase 1, Nɛ-acetyl-lysine at K141 (acTrxR1^K141) (enzyme, human, UniProt Q16881-4 1-551, looked up)
chain: MSCEDGRALEGTLSELAAETDLPVVFVKQRKIGGHGPTLKAYQEGRLQKLLKMNGPEDLPKSYDYDLIIIGGGSGGLAAAKEAAQYGKKVMVLDFVTPTPLGTRWGLGGTCVNVGCIPKKLMHQAALLGQALQDSRNYGWKVEETVKHDWDRMIEAVQNHIGSLNWGYRVALREKKVVYENAYGQFIGPHRIKATNNKGKEKIYSAERFLIATGERPRYLGIPGDKEYCISSDDLFSLPYCPGKTLVVGASYVALECAGFLAGIGLDVTVMVRSILLRGFDQDMANKIGEHMEEHGIKFIRQFVPIKVEQIEAGTPGRLRVVAQSTNSEEIIEGEYNTVMLAIGRDACTRKIGLETVGVKINEKTGKIPVTDEEQTNVPYIYAIGDILEDKVELTPVAIQAGRLLAQRLYAGSTVKCDYENVPTTVFTPLEYGACGLSEEKAVEKFGEENIEVYHSYFWPLEWTIPSRDNNKCYAKIICNTKDNERVVGFHVLGPNAGEVTQGFAAALKCGLTKKQLDSTIGIHPVCAEVFTTLSVTKRSGASILQAGCUG
modifications: Nɛ-acetyl-lysine at 141; selenocysteine (Sec) at 550
notes: Same construct as m1 but for the acetyl-lysine at 141; source: E. coli BL21 DE3 or E. coli ΔRF1 (C321.ΔA.exp) with acKRS/tRNA^Pyl, purified (Ni-NTA, size-exclusion chromatography)
For B1, in data set [1], the “9,10-phenanthrequinone assay, relative activity (x-fold, WT TrxR1 = 1), 100 nM TrxR1” value came out at 1.2 x-fold; the “DTNB assay, relative activity (x-fold, WT TrxR1 = 1), 50 nM TrxR1” value stood at 1.8 x-fold; the “insulin linked Trx1 assay, relative activity (x-fold, WT TrxR1 = 1), 200 nM TrxR1” value came to 1.8 x-fold. The “stoichiometry N” value in data set [2] was 2 and 4.

B2: acetylated thioredoxin reductase 1, Nɛ-acetyl-lysine at K200 (acTrxR1^K200) (enzyme, human, UniProt Q16881-4 1-551, looked up)
chain: B1 chain
modifications: Nɛ-acetyl-lysine at 200; selenocysteine (Sec) at 550
notes: Same construct as m1 but for the acetyl-lysine at 200; source: E. coli BL21 DE3 or E. coli ΔRF1 (C321.ΔA.exp) with acKRS/tRNA^Pyl, purified (Ni-NTA, size-exclusion chromatography)
For the protein B2, in data set [1], the “9,10-phenanthrequinone assay, relative activity (x-fold, WT TrxR1 = 1), 100 nM TrxR1” value turned out to be 1.4 x-fold; the “DTNB assay, relative activity (x-fold, WT TrxR1 = 1), 50 nM TrxR1” value worked out at 2.1 x-fold; the “insulin linked Trx1 assay, relative activity (x-fold, WT TrxR1 = 1), 200 nM TrxR1” value was determined as 1.9 x-fold. For the same protein, in data set [2], the “stoichiometry N” value is 2 and 4.

B3: acetylated thioredoxin reductase 1, Nɛ-acetyl-lysine at K307 (acTrxR1^K307) (enzyme, human, UniProt Q16881-4 1-551, looked up)
chain: B1 chain
modifications: Nɛ-acetyl-lysine at 307; selenocysteine (Sec) at 550
notes: Same construct as m1 but for the acetyl-lysine at 307; source: E. coli BL21 DE3 or E. coli ΔRF1 (C321.ΔA.exp) with acKRS/tRNA^Pyl, purified (Ni-NTA, size-exclusion chromatography)
For the protein B3, in data set [1], the “9,10-phenanthrequinone assay, relative activity (x-fold, WT TrxR1 = 1), 100 nM TrxR1” value amounted to 1.3 x-fold; the “DTNB assay, relative activity (x-fold, WT TrxR1 = 1), 50 nM TrxR1” value was determined as 2.7 x-fold; the “insulin linked Trx1 assay, relative activity (x-fold, WT TrxR1 = 1), 200 nM TrxR1” value was determined as 2 x-fold. Moreover, in data set [2], the “stoichiometry N” value was 2 and 4.

B4: wild-type thioredoxin reductase 1 (human TrxR1, isoform 4, Sec550) (enzyme, UniProt Q16881-4 1-551, looked up)
chain: B1 chain
modifications: selenocysteine (Sec) at 550
notes: amplified with a forward primer at the ATG (NdeI) and a reverse primer behind the fdhF SecIS in the 3' UTR; In solution a mixture of monomers, dimers, tetramers and covalently linked dimers; also called WT TrxR1; His6-TrxR1; source: E. coli BL21 DE3 or E. coli ΔRF1 (C321.ΔA.exp), purified (Ni-NTA, size-exclusion chromatography)
On to B4, for which, in data set [2], the “stoichiometry N” value was 2 and 4.
